T1: LipR (Bacillus thuringiensis BMB171, UniProt A0A0G3DYA8 1-337)
T1 sequence: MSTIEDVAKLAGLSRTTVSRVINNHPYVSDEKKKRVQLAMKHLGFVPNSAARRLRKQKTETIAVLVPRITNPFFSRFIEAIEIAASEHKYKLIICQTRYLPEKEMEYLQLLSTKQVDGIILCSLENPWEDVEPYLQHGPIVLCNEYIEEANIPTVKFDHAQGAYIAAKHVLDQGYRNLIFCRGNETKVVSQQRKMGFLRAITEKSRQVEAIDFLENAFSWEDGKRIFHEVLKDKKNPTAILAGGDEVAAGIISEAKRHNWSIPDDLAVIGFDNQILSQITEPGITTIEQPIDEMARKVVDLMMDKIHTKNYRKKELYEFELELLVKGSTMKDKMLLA


Molecular target: T1, LipR
Assay: EMSA; LipR: 25 mM Tris pH 8.5-9, 150 mM NaCl, 10% glycerol; CcpA/AbrB: 50 mM Tris-HCl pH 7.5, 10 mM MgCl2, 1 mM DTT, 100 mM NaCl; 28 C, 25 min, 10 ul; 500 ng poly(dI-dC) when needed; 6% native PAGE, 0.5x TBE
Settings: protein: recombinant, tags: C-terminal His (pET-28a), chain copies: 2

| Binder | binding result (blunt) | binding result |
| --- | --- | --- |
| 18-bp minimal LipR site (dsDNA) DNA 1: TAAGAAAACGTTTTCATG DNA 2: CATGAAAACGTTTTCTTA | binds | – |
| D6 (dsDNA) DNA 1: CAATTTAAGAAAACGTTTTCATG DNA 2: CATGAAAACGTTTTCTTAAATTG | – | binds |
| 30-bp footprint fragment (dsDNA) DNA 1: ATATAATCAATTTAAGAAAACGTTTTCATG DNA 2: CATGAAAACGTTTTCTTAAATTGATTATAT | – | binds |
